Experimental data published in publication PMC2527131.

Molecular target: BLyS receptors on human B cells (human (endogenous in peripheral blood B cells))

FLAG-tagged murine BLyS (from UniProt Q9WU72 127-309) (ligand)
nuclear localization of NF-κB p52 in human B cells after 48 h with 100 ng/ml BLyS (Western blot of nuclear extracts, three B cell preparations), fold over unstimulated B cells: 2.4 fold

recombinant human FLAG-tagged BLyS (from UniProt Q9Y275 134-285) (ligand)
nuclear localization of NF-κB p52 in human B cells after 48 h with 100 ng/ml BLyS (Western blot of nuclear extracts, three B cell preparations), fold over unstimulated B cells: 7.1 fold
